Assay results reported in patent US9395368B2, “Methods, agents and peptides for inducing an immune response to matrix metalloproteinase-2 expressing tumors” (New York University, priority 2010, dated 2016).

Key:
[1] = system: IFNAR1; assay: IFNAR1 protein expression in DCs (Western blot); type: cell-based, human; conditions: n=7 donors
Experimental: Immature DCs were incubated with MMP-2 (0.5 μg/mL or 5 μg/mL) and poly(I:C)-matured 1 h later. IL-12 levels were measured 16 h later. (A) Results are represented as a percentage of IL-12p70 levels, measured by CBA, produced when DCs were incubated with poly(I:C) only (n=11). (B) For intracellular staining of IL-12p35 and IL-12p40 chains, Brefeldin A was added 4 h after poly(I:C) activation and cells were stained after an additional 12 h incubation. Numbers in the upper right quadrants are the percentages of each population for a representative donor (n=3). (C,D) Immature DCs were incubated with MMP-2 for 1 h (5 μg/mL) before poly(I:C) maturation. Intracellular staining of phosphorylated (Y701) STAT1 (P-STAT1) was performed 3 h later. A representative donor (C) and results for all 3 donors (D) are shown. […] (E) Immature DCs were incubated with MMP-2 and poly(I:C)-matured 1 h later. IFNβ levels were measured by ELISA 16 h later. Results are represented as a percentage of IFNβ levels produced when DCs were incubated with poly(I:C) only (n=9). (F,G) 10^6DCs/lane were treated with 0.1 μg MMP-2 or controls. Poly(I:C) was added 1 h later. IFNAR1 protein expression was detected the next day by Western blot analysis using a rabbit monoclonal antibody. […]
Western blots IFNAR1 and β-actin were detected by Western blot analysis using rabbit and mouse mAbs, respectively. […]

[2] = system: Cord blood-derived CD4+/CD25- cells; assay: Priming of naive CD4+ T cells to Melan-A/MART-1 or NY-ESO-1 with DCs pre-incubated with MMP-2; type: cell-based, human
Experimental: (A) Cord blood-derived CD4^+/CD25^− cells were stimulated with autologous poly(I:C)-matured DCs pulsed with overlapping peptides spanning either Melan-A/MART-1 or NY-ESO-1. Prior to poly(I:C) addition, DCs were incubated with or without MMP-2 (active or heat-inactivated) for 1 h. MMP-2 enzymatic activity was controlled (FIG. 13C-D). After 15 days, CD4^+ T cells were stimulated with the Melan-A/MART-1 or NY-ESO-1 peptide pools (2 μM) for 6 h before intracellular staining of cytokines. Percentages of antigen-specific CD4^+ T cells, secreting indicated cytokines, are represented for all donors. (B) Contour plots showing percentages of cytokine-producing CD4^+ T cells are shown for representative donor CB45 primed to Melan-A/MART-1. Percentage of secreting cells upon peptide stimulation was considered specific/positive when it exceeded by more than twofold the background (cytokine-secreting cells in the absence of stimulation) and had more than 0.5% of responding cells (after background subtraction) for at least one cytokine. For each cytokine, 2 paired t-tests were used to compare priming in the presence of active MMP-2 to either priming in the absence of active MMP-2 or with HI MMP-2. The Bonferroni adjustment was used for multiple comparisons. P values≦0.025 (*) were considered statistically significant using a Bonferroni correction for 2 comparisons.
T Cell culture, stimulation and priming. Peripheral blood mononuclear cells (PBMCs) were purified from healthy donor-(HD) or cord blood donor-(CB) derived buffy coats (New York Blood Center) by Ficoll-Paque Plus (GE Healthcare) centrifugation. CD4^+/CD25^− cells were enriched (>90%) by magnetic cell sorting (Miltenyi Biotec) and primed/stimulated for 12-15 days either with irradiated (35Gy) autologous CD4^− cells or with autologous mature DCs in IMDM (GIBCO) supplemented with 1 mM HEPES (Life Technologies), 2 mM L-glutamine (Sigma), streptomycin (100 UI/mL)/penicillin (100 μg/mL) (Sigma) and 5% heat inactivated pooled human serum (PHS; Valley Biomedical) in the presence of rhIL-2 (10 UI/mL) and IL7 (5 ng/mL) (R&D Systems). Antigen presenting cells (CD4^− cells or DCs) were loaded either with peptides (2 μM) or with the MMP-2 protein (10 μg/mL) for 2 and 5 h, respectively. DCs were matured using the TLR3 agonist poly(I:C) at 5 μg/mL/10^6 DCs (Amersham). To generate T cell clones, we originally relied on our published methodology (Godefroy et al., 2006; Godefroy et al., 2007; the entire contents of each of which is incorporated herein by reference), involving enrichment of IFNγ-secreting cells upon short-term culture and peptide stimulation to generate MMP-2 responsive clones. Briefly, CD4^+ T cells were stimulated by CD4^− cells irradiated and pulsed with peptides for 12 days in the presence of rhIL-2 and rhIL-7. CD4^+ T cells were then restimulated with peptides for 3 hours before capturing IFNγ-secreting specific cells using a bispecific antibody coating T cells and capturing produced IFNγ. Positive cells were purified magnetically before being cloned. Although MMP-2-specific cells could be isolated, it was realized that IFNγ secretion was marginal compared to their secretion of IL-4 and TNFα. IFNγ-secreting cells in response to MMP-2 peptide pool were enriched by cytokine-guided magnetic cell sorting (Miltenyi Biotec) as described above and cloned the following day by limiting dilution in the presence of irradiated allogeneic PBMCs, 1 μg/mL phytohemagglutinin-L (Sigma) and 150 UI/mL rhIL-2. Tumor infiltrating lymphocytes (TILs) were provided by Pr. F. Jotereau and B. Dréno. They were obtained from tumor-invaded lymph nodes of melanoma patients (stage Mb) and expanded ex vivo. These patients received autologous TILs and IL-2 infusions in a clinical trial (Labarriere et al., 2002). This protocol was approved by the Institutional Ethics Committee and registered with regulatory state authority in France (Nantes). […]

[3] = DCs pre-incubated before poly(I:C) maturation

B1: active MMP-2: Purified human MMP-2 (mixture of the proenzyme (50%) and the active form (50%)) purchased from Biomol (protein, listed as Homo sapiens)
chain: MEALMARGALTGPLRALCLLGCLLSHAAAAPSPIIKFPGDVAPKTDKELAVQYLNTFYGCPKESCNLFVLKDTLKKMQKFFGLPQTGDLDQNTIETMRKPRCGNPDVANYNFFPRKPKWDKNQITYRIIGYTPDLDPETVDDAFARAFQVWSDVTPLRFSRIHDGEADIMINFGRWEHGDGYPFDGKDGLLAHAFAPGTGVGGDSHFDDDELWTLGEGQVVRVKYGNADGEYCKFPFLFNGKEYNSCTDTGRSDGFLWCSTTYNFEKDGKYGFCPHEALFTMGGNAEGQPCKFPFRFQGTSYDSCTTEGRTDGYRWCGTTEDYDRDKKYGFCPETAMSTVGGNSEGAPCVFPFTFLGNKYESCTSAGRSDGKMWCATTANYDDDRKWGFCPDQGYSLFLVAAHEFGHAMGLEHSQDPGALMAPIYTYTKNFRLSQDDIKGIQELYGASPDIDLGTGPTPTLGPVTPEICKQDIVFDGIAQIRGEIFFFKDRFIWRTVTPRDKPMGPLLVATFWPELPEKIDAVYEAPQEEKAVFFAGNEYWIYSASTLERGYPKPLTSLGLPPDVQRVDAAFNWSKNKKTYIFAGDKFWRYNEVKKKMDPGFPKLIADAWNAIPDNLDAVVDLQGGGHSYFFKGAYYLKLENQSLKSVKFGSIKSDWLGC
- expression of IFNAR1 chain on DCs [1]: drastically lost expression
- antigen-specific CD4+ T cells secreting IL-4, mean ([2]; 10 cord blood donors, 15 days): 2.50%
- antigen-specific CD4+ T cells secreting IL-13, mean ([2]; 10 cord blood donors, 15 days): 0.08%
- IL-4, mean of differences versus priming without MMP-2 [2, 3]: 1.85
- IL-13, mean of differences versus priming without MMP-2 [2, 3]: 0.07
- production of type-1 cytokines (IFNγ and IL-2) upon peptide re-stimulation ([2]; Melan-A/MART-1- and NY-ESO-1-specific primed CD4+ T cells): failed to produce
